Experiments:
[1] = target: T1, complement factor H, native glycosylated, full-length, purified from human plasma (human), P08603; experiment: AUC; sedimentation velocity of full-length CFH, 20 °C, 40,000 rpm, Hepes buffer, 0.2 to 1.8 mg/ml, c(s) analysis in SEDFIT, proportions from peak integration; monomer to dimer; settings: remark: other sources report otherwise
T1 chain: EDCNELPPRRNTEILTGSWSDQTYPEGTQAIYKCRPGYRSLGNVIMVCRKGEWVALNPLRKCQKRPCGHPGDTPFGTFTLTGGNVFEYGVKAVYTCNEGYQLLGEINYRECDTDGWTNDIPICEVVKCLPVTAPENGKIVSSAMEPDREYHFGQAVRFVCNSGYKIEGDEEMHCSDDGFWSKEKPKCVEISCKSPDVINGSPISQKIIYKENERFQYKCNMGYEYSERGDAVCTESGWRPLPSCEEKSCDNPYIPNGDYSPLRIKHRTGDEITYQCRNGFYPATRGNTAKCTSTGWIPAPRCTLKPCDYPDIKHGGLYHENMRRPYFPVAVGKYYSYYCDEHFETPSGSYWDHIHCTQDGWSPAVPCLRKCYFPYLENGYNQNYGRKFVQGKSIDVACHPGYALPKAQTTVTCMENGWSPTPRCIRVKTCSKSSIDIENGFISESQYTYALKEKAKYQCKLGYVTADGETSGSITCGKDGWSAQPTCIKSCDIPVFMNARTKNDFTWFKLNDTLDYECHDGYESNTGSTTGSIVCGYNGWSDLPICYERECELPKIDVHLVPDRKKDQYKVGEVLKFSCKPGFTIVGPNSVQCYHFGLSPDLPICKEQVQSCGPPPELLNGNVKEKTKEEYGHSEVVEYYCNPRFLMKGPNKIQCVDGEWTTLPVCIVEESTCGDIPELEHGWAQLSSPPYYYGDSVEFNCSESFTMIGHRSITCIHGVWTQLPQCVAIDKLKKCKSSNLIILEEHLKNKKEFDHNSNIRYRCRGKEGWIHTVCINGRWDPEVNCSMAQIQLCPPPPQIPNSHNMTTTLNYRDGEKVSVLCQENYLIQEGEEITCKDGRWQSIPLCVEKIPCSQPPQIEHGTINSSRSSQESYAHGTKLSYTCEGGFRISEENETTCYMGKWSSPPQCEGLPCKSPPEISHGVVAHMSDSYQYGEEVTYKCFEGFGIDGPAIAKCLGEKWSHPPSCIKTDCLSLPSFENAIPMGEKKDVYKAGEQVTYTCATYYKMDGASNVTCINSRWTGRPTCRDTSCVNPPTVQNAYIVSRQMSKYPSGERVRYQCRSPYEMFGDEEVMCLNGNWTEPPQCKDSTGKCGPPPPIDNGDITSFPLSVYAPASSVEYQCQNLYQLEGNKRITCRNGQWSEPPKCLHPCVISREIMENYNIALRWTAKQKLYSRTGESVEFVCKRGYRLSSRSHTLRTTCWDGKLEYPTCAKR

[2] = target: T1, complement factor H, native …; experiment: SPR; Biacore X100, biotinylated glycosylated CFH on a streptavidin chip (781 RU), CFH preparations flowed at 0.01 to 1.8 μM, Hepes buffer, single-cycle, 1:1 steady-state affinity fit; settings: remark: other sources report otherwise

- proportion of dimer [1]: 4%
- stoichiometry N [1]: 2
- Kd [2]: 1.6 µM
B1: complement factor H, native glycosylated, full-length, purified from human plasma, P08603 19-1231 (natural protein)
chain: EDCNELPPRRNTEILTGSWSDQTYPEGTQAIYKCRPGYRSLGNVIMVCRKGEWVALNPLRKCQKRPCGHPGDTPFGTFTLTGGNVFEYGVKAVYTCNEGYQLLGEINYRECDTDGWTNDIPICEVVKCLPVTAPENGKIVSSAMEPDREYHFGQAVRFVCNSGYKIEGDEEMHCSDDGFWSKEKPKCVEISCKSPDVINGSPISQKIIYKENERFQYKCNMGYEYSERGDAVCTESGWRPLPSCEEKSCDNPYIPNGDYSPLRIKHRTGDEITYQCRNGFYPATRGNTAKCTSTGWIPAPRCTLKPCDYPDIKHGGLYHENMRRPYFPVAVGKYYSYYCDEHFETPSGSYWDHIHCTQDGWSPAVPCLRKCYFPYLENGYNQNYGRKFVQGKSIDVACHPGYALPKAQTTVTCMENGWSPTPRCIRVKTCSKSSIDIENGFISESQYTYALKEKAKYQCKLGYVTADGETSGSITCGKDGWSAQPTCIKSCDIPVFMNARTKNDFTWFKLNDTLDYECHDGYESNTGSTTGSIVCGYNGWSDLPICYERECELPKIDVHLVPDRKKDQYKVGEVLKFSCKPGFTIVGPNSVQCYHFGLSPDLPICKEQVQSCGPPPELLNGNVKEKTKEEYGHSEVVEYYCNPRFLMKGPNKIQCVDGEWTTLPVCIVEESTCGDIPELEHGWAQLSSPPYYYGDSVEFNCSESFTMIGHRSITCIHGVWTQLPQCVAIDKLKKCKSSNLIILEEHLKNKKEFDHNSNIRYRCRGKEGWIHTVCINGRWDPEVNCSMAQIQLCPPPPQIPNSHNMTTTLNYRDGEKVSVLCQENYLIQEGEEITCKDGRWQSIPLCVEKIPCSQPPQIEHGTINSSRSSQESYAHGTKLSYTCEGGFRISEENETTCYMGKWSSPPQCEGLPCKSPPEISHGVVAHMSDSYQYGEEVTYKCFEGFGIDGPAIAKCLGEKWSHPPSCIKTDCLSLPSFENAIPMGEKKDVYKAGEQVTYTCATYYKMDGASNVTCINSRWTGRPTCRDTSCVNPPTVQNAYIVSRQMSKYPSGERVRYQCRSPYEMFGDEEVMCLNGNWTEPPQCKDSTGKCGPPPPIDNGDITSFPLSVYAPASSVEYQCQNLYQLEGNKRITCRNGQWSEPPKCLHPCVISREIMENYNIALRWTAKQKLYSRTGESVEFVCKRGYRLSSRSHTLRTTCWDGKLEYPTCAKR
modifications: here or on the partner: eight N-linked biantennary complex-type glycans, among them those at Asn1011 (SCR-17) and Asn1077 (SCR-18); eight N-linked biantennary complex-type glycans, among them those at Asn1011 (SCR-17) and Asn1077 (SCR-18)
